# Data published in patent US20230159662A1 (Kyowa Kirin, published 2023).
# Residue numbers refer to the chain shown, from its start. Names may count otherwise.
# B1: human IgG1 anti-human CCR4 antibody (KM2160), S239E/I332Y (antibody)
# heavy: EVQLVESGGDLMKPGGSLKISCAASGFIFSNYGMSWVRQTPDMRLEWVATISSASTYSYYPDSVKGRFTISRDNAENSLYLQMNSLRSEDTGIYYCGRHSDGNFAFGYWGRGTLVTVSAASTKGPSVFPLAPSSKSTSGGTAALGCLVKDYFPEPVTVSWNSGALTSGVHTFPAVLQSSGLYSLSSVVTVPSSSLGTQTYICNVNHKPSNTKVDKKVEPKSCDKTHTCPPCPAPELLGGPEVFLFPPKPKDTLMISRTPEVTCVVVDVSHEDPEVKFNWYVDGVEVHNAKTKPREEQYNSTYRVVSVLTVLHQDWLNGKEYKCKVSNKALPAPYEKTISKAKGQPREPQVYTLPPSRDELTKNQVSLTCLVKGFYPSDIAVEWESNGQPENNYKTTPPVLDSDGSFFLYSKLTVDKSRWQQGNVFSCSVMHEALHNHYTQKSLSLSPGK
# light: DVLMTQTPLSLPVSLGDQASISCRSSRNIVHINGDTYLEWYLQRPGQSPKLLIYKVSNRFSGVPDRFSGSGSGTDFTLKISRVEAEDLGVYYCFQGSLLPWTFGGGTRLEIRRTVAAPSVFIFPPSDEQLKSGTASVVCLLNNFYPREAKVQWKVDNALQSGNSQESVTEQDSKDSTYSLSSTLTLSKADYEKHKVYACEVTHQGLSSPVTKSFNRGEC
# B2: human IgG1 anti-human CCR4 antibody (KM2160), S239E/I332A (antibody)
# heavy: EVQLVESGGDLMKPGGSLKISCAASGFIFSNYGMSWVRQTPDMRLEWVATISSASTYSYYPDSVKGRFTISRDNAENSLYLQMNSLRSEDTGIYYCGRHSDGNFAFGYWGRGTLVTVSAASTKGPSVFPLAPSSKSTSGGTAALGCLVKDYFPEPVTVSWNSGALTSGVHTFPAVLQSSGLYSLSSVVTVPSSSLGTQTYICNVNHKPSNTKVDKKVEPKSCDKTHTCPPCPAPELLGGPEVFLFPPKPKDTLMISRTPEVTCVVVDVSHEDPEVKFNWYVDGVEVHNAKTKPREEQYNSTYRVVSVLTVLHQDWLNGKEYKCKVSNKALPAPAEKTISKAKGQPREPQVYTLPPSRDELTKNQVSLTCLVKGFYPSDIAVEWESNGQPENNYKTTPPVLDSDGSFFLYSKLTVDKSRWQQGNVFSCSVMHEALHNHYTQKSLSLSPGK
# light: B1 light
# B3: human IgG1 anti-human CCR4 antibody (KM2160), S239E/K326T (antibody)
# heavy: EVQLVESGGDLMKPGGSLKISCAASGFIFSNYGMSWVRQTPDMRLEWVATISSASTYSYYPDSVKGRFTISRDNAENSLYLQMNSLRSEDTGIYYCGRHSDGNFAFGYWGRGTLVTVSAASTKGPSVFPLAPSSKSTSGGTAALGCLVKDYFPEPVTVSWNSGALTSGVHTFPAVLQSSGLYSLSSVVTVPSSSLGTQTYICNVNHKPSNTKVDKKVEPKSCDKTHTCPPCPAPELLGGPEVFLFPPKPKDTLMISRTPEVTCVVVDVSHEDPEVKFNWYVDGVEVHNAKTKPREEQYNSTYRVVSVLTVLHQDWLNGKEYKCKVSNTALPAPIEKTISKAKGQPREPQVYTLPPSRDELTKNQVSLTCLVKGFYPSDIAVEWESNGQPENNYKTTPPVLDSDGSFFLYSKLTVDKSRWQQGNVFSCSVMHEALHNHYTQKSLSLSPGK
# light: B1 light
# B4: human IgG1 anti-human CCR4 antibody (KM2160), G316D/A378V/D399E (antibody)
# heavy: EVQLVESGGDLMKPGGSLKISCAASGFIFSNYGMSWVRQTPDMRLEWVATISSASTYSYYPDSVKGRFTISRDNAENSLYLQMNSLRSEDTGIYYCGRHSDGNFAFGYWGRGTLVTVSAASTKGPSVFPLAPSSKSTSGGTAALGCLVKDYFPEPVTVSWNSGALTSGVHTFPAVLQSSGLYSLSSVVTVPSSSLGTQTYICNVNHKPSNTKVDKKVEPKSCDKTHTCPPCPAPELLGGPSVFLFPPKPKDTLMISRTPEVTCVVVDVSHEDPEVKFNWYVDGVEVHNAKTKPREEQYNSTYRVVSVLTVLHQDWLNDKEYKCKVSNKALPAPIEKTISKAKGQPREPQVYTLPPSRDELTKNQVSLTCLVKGFYPSDIVVEWESNGQPENNYKTTPPVLESDGSFFLYSKLTVDKSRWQQGNVFSCSVMHEALHNHYTQKSLSLSPGK
# light: B1 light
# B5: human IgG1 anti-human CCR4 antibody (KM2160), S239E/K326E (antibody)
# heavy: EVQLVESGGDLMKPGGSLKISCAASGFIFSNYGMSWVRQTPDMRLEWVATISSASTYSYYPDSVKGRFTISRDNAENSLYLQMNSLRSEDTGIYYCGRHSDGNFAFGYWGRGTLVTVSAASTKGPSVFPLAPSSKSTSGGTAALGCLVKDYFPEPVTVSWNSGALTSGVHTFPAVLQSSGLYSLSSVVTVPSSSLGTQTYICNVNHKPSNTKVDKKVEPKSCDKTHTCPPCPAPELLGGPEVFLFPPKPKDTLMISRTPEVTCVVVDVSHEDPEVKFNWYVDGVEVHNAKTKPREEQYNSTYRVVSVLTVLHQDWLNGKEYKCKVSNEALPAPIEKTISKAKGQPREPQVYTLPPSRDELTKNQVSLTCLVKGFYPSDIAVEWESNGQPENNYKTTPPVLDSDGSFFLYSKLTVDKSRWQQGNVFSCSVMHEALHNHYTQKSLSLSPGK
# light: B1 light
# B6: human IgG1 anti-human CCR4 antibody (KM2160), K334E/T359N/T366S (antibody)
# heavy: B4 heavy with D318G, K336E, T361N, T368S, V380A, E401D
# light: B1 light
# B7: human IgG1 anti-human CCR4 antibody (KM2160), S239E/I332E, CH of SEQ ID NO 176 (antibody)
# heavy: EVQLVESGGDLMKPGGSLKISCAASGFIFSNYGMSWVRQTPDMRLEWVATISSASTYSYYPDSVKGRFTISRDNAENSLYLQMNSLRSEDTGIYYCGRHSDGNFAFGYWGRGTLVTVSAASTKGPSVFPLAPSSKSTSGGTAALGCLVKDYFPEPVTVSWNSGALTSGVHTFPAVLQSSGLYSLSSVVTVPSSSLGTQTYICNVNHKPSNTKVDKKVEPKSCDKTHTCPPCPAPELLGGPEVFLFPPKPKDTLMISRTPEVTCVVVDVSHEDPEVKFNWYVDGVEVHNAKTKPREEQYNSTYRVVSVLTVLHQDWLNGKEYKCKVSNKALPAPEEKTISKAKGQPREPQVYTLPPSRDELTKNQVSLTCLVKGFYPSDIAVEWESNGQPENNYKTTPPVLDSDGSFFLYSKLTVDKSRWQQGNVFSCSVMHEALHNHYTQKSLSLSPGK
# light: B1 light
# B8: human IgG1 anti-human CCR4 antibody (KM2160), F243L/R292P/Y300L (antibody)
# heavy: B4 heavy with F245L, R294P, Y302L, D318G, V380A, E401D
# light: B1 light
# B9: human IgG1 anti-human CCR4 antibody (KM2160), P230A/E233D/I332E (antibody)
# heavy: B4 heavy with P232A, E235A, D318G, I334E, V380A, E401D
# light: B1 light
# B10: human IgG1 anti-human CCR4 antibody (KM2160), S239E/I332T (antibody)
# heavy: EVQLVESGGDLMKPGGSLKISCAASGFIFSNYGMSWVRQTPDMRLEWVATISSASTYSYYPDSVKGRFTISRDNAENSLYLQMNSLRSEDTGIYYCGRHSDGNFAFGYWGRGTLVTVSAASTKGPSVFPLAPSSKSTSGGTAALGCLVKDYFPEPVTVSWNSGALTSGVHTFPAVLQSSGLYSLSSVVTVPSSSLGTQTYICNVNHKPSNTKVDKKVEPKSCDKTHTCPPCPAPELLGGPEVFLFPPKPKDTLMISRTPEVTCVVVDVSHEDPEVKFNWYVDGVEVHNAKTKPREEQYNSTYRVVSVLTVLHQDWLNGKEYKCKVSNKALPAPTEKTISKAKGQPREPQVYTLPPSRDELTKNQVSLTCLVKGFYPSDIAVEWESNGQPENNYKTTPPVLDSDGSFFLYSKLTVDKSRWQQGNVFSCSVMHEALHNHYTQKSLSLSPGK
# light: B1 light
# B11: human IgG1 anti-human CCR4 antibody (KM2160), F243L/R292P/Y300L/V305I/P396L (antibody)
# heavy: B4 heavy with F245L, R294P, Y302L, V307I, D318G, V380A, P398L, E401D
# light: B1 light
# B12: human IgG1 anti-human CCR4 antibody (KM2160), printed as S239E/I332E, CH of SEQ ID NO 178 (antibody)
# heavy: not shown
# light: B1 light
# B13: human IgG1 anti-human CCR4 antibody (KM2160), S239E/I332L (antibody)
# heavy: not shown
# light: B1 light
# B14: human IgG1 anti-human CCR4 antibody (KM2160), S239E/I332F (antibody)
# heavy: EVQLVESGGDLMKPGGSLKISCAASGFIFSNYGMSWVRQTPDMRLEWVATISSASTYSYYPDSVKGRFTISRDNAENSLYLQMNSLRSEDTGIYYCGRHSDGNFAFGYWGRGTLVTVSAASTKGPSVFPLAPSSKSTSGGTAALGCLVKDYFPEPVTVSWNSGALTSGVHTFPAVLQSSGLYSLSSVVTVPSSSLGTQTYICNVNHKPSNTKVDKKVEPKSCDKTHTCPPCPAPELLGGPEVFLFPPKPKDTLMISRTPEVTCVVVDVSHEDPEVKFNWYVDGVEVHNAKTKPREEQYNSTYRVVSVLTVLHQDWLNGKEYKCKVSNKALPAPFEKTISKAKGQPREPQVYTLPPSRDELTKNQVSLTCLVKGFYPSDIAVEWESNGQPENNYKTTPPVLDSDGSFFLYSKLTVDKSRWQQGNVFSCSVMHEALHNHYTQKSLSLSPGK
# light: B1 light
# B15: human IgG1 anti-human CCR4 antibody (KM2160), S239E/K326L (antibody)
# heavy: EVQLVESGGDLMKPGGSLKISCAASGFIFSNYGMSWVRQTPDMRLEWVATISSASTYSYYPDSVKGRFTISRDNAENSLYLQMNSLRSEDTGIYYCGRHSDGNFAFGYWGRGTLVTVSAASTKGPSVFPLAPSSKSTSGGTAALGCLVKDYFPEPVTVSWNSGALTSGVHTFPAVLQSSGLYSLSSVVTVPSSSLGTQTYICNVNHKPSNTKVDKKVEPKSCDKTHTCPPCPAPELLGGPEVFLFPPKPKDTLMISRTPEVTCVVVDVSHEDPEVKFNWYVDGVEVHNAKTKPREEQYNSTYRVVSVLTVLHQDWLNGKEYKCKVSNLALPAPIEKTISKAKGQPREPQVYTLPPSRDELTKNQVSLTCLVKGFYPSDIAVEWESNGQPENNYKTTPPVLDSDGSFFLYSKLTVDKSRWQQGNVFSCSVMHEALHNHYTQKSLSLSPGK
# light: B1 light
# B16: human IgG1 anti-human CCR4 antibody (KM2160), S239E/I332W (antibody)
# heavy: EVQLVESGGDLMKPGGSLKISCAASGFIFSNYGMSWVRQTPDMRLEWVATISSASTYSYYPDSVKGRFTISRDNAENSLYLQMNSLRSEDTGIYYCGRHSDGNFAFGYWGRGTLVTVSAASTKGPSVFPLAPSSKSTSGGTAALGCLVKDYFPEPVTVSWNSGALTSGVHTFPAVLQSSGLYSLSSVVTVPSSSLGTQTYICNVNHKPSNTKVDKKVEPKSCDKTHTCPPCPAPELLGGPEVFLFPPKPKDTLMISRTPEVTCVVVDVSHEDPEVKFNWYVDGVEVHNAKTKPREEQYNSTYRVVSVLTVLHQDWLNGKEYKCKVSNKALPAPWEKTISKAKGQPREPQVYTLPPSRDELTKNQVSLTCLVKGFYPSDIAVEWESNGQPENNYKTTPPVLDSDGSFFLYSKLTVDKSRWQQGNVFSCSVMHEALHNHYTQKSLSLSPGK
# light: B1 light
# B17: human IgG1 anti-human CCR4 antibody (KM2160), K288N/A330S/P396L (antibody)
# heavy: B4 heavy with K290N, D318G, A332S, V380A, P398L, E401D
# light: B1 light
# B18: human IgG1 anti-human CCR4 antibody (KM2160), S239E/I332H (antibody)
# heavy: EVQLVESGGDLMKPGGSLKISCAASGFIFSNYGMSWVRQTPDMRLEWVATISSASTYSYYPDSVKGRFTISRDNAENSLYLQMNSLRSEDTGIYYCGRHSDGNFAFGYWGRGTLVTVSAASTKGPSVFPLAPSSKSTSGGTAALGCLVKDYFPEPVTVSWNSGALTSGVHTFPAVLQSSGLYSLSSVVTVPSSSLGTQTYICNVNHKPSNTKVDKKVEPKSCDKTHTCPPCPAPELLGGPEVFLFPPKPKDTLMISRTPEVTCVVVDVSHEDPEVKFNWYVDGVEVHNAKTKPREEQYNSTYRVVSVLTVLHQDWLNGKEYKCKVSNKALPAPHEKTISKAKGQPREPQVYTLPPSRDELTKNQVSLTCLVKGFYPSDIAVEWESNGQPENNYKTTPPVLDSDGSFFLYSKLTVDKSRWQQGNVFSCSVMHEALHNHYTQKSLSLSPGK
# light: B1 light
# B19: human IgG1 anti-human CCR4 antibody (KM2160), S239E/K326I (antibody)
# heavy: not shown
# light: B1 light
# Molecular target: human CD16a (Val type) stably expressed on NK-92 cells (NK-92/CD16 transfectant) (human, UniProt P08637 17-254)
# Experiment: cell-based or functional assay
# human CD16a (Val type) stably expressed on NK-92 cells (NK-92/CD16 transfectant), sequence (P08637 17-254 F176V): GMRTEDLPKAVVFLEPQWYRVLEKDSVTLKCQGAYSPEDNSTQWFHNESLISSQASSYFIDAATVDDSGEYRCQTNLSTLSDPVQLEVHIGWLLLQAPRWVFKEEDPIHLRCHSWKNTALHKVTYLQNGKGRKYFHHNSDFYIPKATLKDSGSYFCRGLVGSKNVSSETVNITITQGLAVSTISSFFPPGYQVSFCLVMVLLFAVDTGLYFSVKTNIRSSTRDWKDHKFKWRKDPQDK
row,relative ADCC activity (AAA = 100),Binder
1,"130 relative, AAA at 0.1 µg/mL = 100",B1
2,"62 relative, AAA at 0.1 µg/mL = 100",B2
3,"132 relative, AAA at 0.1 µg/mL = 100",B3
4,"-38 relative, AAA at 0.1 µg/mL = 100",B4
5,"129 relative, AAA at 0.1 µg/mL = 100",B5
6,"-110 relative, AAA at 0.1 µg/mL = 100",B6
7,"153 relative, AAA at 0.1 µg/mL = 100",B7
8,"3 relative, AAA at 0.1 µg/mL = 100",B8
9,"53 relative, AAA at 0.1 µg/mL = 100",B9
10,"52 relative, AAA at 0.1 µg/mL = 100",B10
11,"-9 relative, AAA at 0.1 µg/mL = 100",B11
12,"90 relative, AAA at 0.1 µg/mL = 100",B12
13,"57 relative, AAA at 0.1 µg/mL = 100",B13
14,"34 relative, AAA at 0.1 µg/mL = 100",B14
15,"109 relative, AAA at 0.1 µg/mL = 100",B15
16,"44 relative, AAA at 0.1 µg/mL = 100",B16
17,"-131 relative, AAA at 0.1 µg/mL = 100",B17
18,"71 relative, AAA at 0.1 µg/mL = 100",B18
19,"135 relative, AAA at 0.1 µg/mL = 100",B19
